Data: US11225653B2, “Methods and compounds for reducing threonyl-tRNA synthetase activity” (University of Vermont and State Agricultural College, priority 2012, dated 2022)
Entries after “also recorded” stand apart in the source; their conditions may differ.

Legend:
HUVECs [1] = assay: Quantitative RT-PCR of TARS mRNA; type: cell-based, human; details: HUVECs exposed to 50 ng/ml VEGF or TNF-α
Description: Quantitative RT-PCR—Total RNA was extracted from cells using the RNeasy column protocol and cDNA was generated using an Omniscript reverse transcriptase assay according to the manufacturer's instructions (Qiagen, Frederick, Md.). Primers and probes for TARS and β2-microglobulin were Assays-on-Demand (Applied Biosystems, [Life Technologies, Carlsbad, Calif.]). RT-qPCR was performed using an ABI prism 7700 Sequence Detection System (Applied Biosystems). The relative quantity of mRNA level was determined using the comparative CT (ΔΔCT) method using β2-microglobulin to normalize mRNA level (Cassavaugh, Hale et al. 2011).

[2] = test system: Human umbilical vein endothelial cells (HUVECs); assay: In vitro endothelial tube formation assay; type: cell-based; details: 100 nM purified recombinant human TARS in low serum media (0.2% FBS), 6 h
Description: In vitro Tube Formation Assay-Tube formation assays were performed as described (Arnaoutova and Kleinman 2010; Cassavaugh, Hale et al. 2011). Human Umbilical Vein Endothelial Cells (HUVECs) were seeded in 48-well plates (1.5×10^4 cells/well) coated with 100 μl of Matrigel™ Basement Membrane Matrix Growth Factor Reduced (BD Biosciences, San Jose, Calif.) and incubated in Clonetics® EGM®-2 complete media (Lonza, Annandale, N.J.) or EGM®-2 with reduced serum (0.2% fetal bovine serum). Cells were incubated at 37° C. for 6 h then fixed in 10% formalin. Fixed samples were imaged by phase-contrast microscopy or stained with Oregon Green 488 Phalloidin (Molecular Probes, Eugene, Oreg.) then imaged with fluorescence microscopy (2× objective). Number of tubes and tube lengths (in pixels) were quantified using the Simple Neurite Tracer (Longair, Baker et al. 2011) plug-in on ImageJ software (NIH). Statistical analysis of one-way ANOVA was performed with GraphPad Software. Multiple comparisons were performed using the Tukey Test.

HUVECs [3] = assay: Endothelial cell proliferation assay (alamarBlue); type: cell-based, human; details: HUVECs in low serum (0.2% FBS) media
Description: Endothelial Cell Proliferation Assay—The […] alamarBlue® (Invitrogen) reagent was used to assess cell proliferation (Ahmed, Gogal et al. 1994). HUVECs were seeded in a 96-well dish (1×10^3 cells/well) and grown for 48 h in EGM®-2 media. Cells were incubated in 0.2% FBS EGM®-2 media or EGM®-2 complete media as indicated; VEGF (50 ng/ml) and media alone served as controls. After 48 h, 72 h, or 96 h in culture, 10 μl/well premixed alamarBlue® (Invitrogen) was added and after 3 h at 37° C. the amount of reduced alamarBlue® was quantified by fluorescence (excitation at 530 nm, emission at 590 nm) on a microplate reader (Synergy™ HT, BioTek, Winooski, Vt.).

[4] = test system: chorioallantoic membrane (CAM); assay: Chick chorioallantoic membrane (CAM) assay; type: in vivo, chicken; details: for vessel formation / vascularization on the CAM after applied protein: purified protein applied daily to sponge, scored over 72 h
Description: Chick Chorioallantoic Membrane Assay-Fertilized chicken eggs (Sunrise Farms, Catskill, N.Y.) day 1-2 post-laying were incubated in a humidified incubator at 37° C. for 72 h. Cleaned eggs were cracked and plated in a sterile 10 cm^2 tissue culture-treated dish and incubated at 37° C. for another 7 days. On developmental day 10, 1 mm^3 sterile gelatin sponge pieces (Surgifoam®; Johnson & Johnson Wound Management, Somerville, N.J.) were placed within the outer one-third of the membrane between large vessels. 40 μg/ml human bFGF and 2 μg/mL human VEGF were used as pro-angiogenic control compounds; 100 μg/mL retinoic acid (Sigma-Aldrich, St. Louis, Mo.) diluted in phosphate-buffered saline (PBS) was used as an angiostatic control. All compounds were applied in 10 μl to the CAM every 24 h for 72 h. Images were taken using a Leica MZ6 stereomicroscope every 24 h. Compounds were scored according to a modified version of Intensity Scoring as previously described (Ribatti, Nico et al. 2006). Briefly, each experimental condition was given a blinded score from 0-5 based on the change in the extent of vessel convergence and formation in proximity to the sponge from day 0 to day 3. Total score is averaged individual experimental condition scores from at least 15 replicates.
Fertilized chicken embryos were cultured ex-ova and, starting at developmental day 10, agents were applied daily to gelfoam sponges on the CAM. Images were recorded daily over 72 h and scored blindly according to a modified version Intensity Scoring as previously described (Ribatti, Nico et al. 2006). Additional details regarding methods are provided in the Methods and Materials section of Example 1.

HUVEC = assay: Transwell migration assay; type: cell-based, human; details: 100 nM TARS or 100 nM LARS in migration compartment, 4 h
Description: Transwell Migration Assay—Migration was assessed using transwell inserts (Svensson, Kucharzewska et al. 2011). HUVEC cultures were serum-depleted overnight in Clonetics® EGM®-2 modified with 0.2% fetal bovine serum then 5×10^4 cells were plated in 90% EBM®-2, 10% EGM®-2 in the upper chamber of 0.2% gelatin-coated 24-well 8 μm Transwell® inserts (Corning, Tewksbury, Mass.) with 90% EBM®-2, 10% EGM®-2 media plus 50 ng/ml VEGF, 1-100 nM TARS protein, or 10 nM BC194 in the lower chamber. Cultures were incubated for 4 h, fixed in 10% formalin, and stained with 10 μg/ml DAPI solution (Roche) following removal of cells from the top layer of the chamber with a cotton swab. Migrated cells were imaged using a 4× objective on the Olympus 1×70 Inverted microscope (Olympus). DAPI-stained nuclei were counted using ImageJ software.

human TARS [5] = assay: Steady state aminoacylation assay; type: biochemical; details: purified protein
Description: Steady State Aminoacylation Assay-The aminoacylation activities of the TARS constructs were determined using modifications to established procedures ([…] et al 2008). Briefly, reaction mixtures consisted of 20 mM Tris-HCl pH 8.0, 100 mM KCl, 10 mM MgCl2, 1 mM dithiothreitol, 2 mM ATP, 2.5 U pyrophosphatase (Roche), 80 μM threonine, 20 μM [14C]-threonine, and 5 μM of E. coli or human […]. Reactions were initiated with the addition of 0.25-0.75 μM TARS and run at 37° C. Aliquots were taken at varying time points and spotted onto Whatmann 3MM paper filters pre-soaked in 5% trichloroacetic acid (TCA). Upon completion, the filters were washed 3 times in excess TCA, once in 95% ethanol, and dried under a heating lamp. The formation of […] was detected by scintillation counter and the activity determined by linear regression of […] formed per active site per unit time.

human TARS [6] = assay: Ap4A formation assay; type: biochemical; details: 5 μM enzyme, 2 mM threonine, 2 mM ATP
Description: TARS purification and active site determination were performed as previously described (Williams, Mirando et al., 2013). TARS non-canonical catalytic activities were characterized using modifications from published methods (Guo, Chong et al. 2009). For Ap4A reactions 5 μM of wildtype TARS or R442A TARS were incubated for 10 minutes on ice with 2 mM threonine, and 10 μM BC194 or borrelidin as indicated in FIG. 17C. Reactions were initiated using 2 mM ATP with trace amounts of [α-^32P]-ATP as label. At specific time points aliquots were quenched in 3 volumes of 0.1% SDS, 400 mM sodium acetate and resolved on polyethyleneimine-cellulose plates by thin-layer chromatography (TLC) in 3 M NH4 (SO4)2 and 2% EDTA. Radioactive counts were identified by phosphorimaging and products quantified as fractions of total ATP added. The quantitation of product was normalized to take into account the fact that each Ap4A molecule has two equivalents of radioactive phosphorus.

human TARS [7] = assay: Ap4G formation assay; type: biochemical; details: 2 mM ATP, 2 mM threonine, 2 mM GTP
human TARS [8] = assay: GTPase assay (GTP hydrolysis); type: biochemical; details: 2 mM GTP

| GTP hydrolysis (human TARS [8]) | Molecule | TARS mRNA / transcription (HUVECs [1]) | number of tube branches after exogenous protein [2] | cell proliferation with TARS (HUVECs [3]) | sensitivity of protein-stimulated CAM vessel formation to BC194 ([4]; protein applied together with BC194) | vessel formation / vascularization on the CAM after applied protein [4] | migration of endothelial cells (HUVEC) | aminoacylation activity of the protein (human TARS [5]) | production of Ap4A (human TARS [6]) | rate of Ap4G formation (human TARS [7]) |
| --- | --- | --- | --- | --- | --- | --- | --- | --- | --- | --- |
| – | TNF-α | neither VEGF nor TNF-α induced an increase; also recorded: do not induce TARS transcription | – | – | – | – | – | – | – | – |
| – | VEGF | neither VEGF nor TNF-α induced an increase; also recorded: do not induce TARS transcription | – | – | – | – | – | – | – | – |
| 0.3033 GDP/active site/min | TARS: N-terminal His6-tagged human threonyl-tRNA synthetase expressed and purified from E. coli (protein, UniProt P26639 1-723, looked up, N-terminal His6 tag, N-terminal His6-tagged human threonyl-tRNA synthetase expressed and purified from E. coli) Threonine--tRNA ligase 1, …: MFEEKASSPSGKMGGEEKPIGAGEEKQKEGGKKKNKEGSGDGGRAELNPWPEYIYTRLEMYNILKAEHDSILAEKAEKDSKPIKVTLPDGKQVDAESWKTTPYQIACGISQGLADNTVIAKVNNVVWDLDRPLEEDCTLELLKFEDEEAQAVYWHSSAHIMGEAMERVYGGCLCYGPPIENGFYYDMYLEEGGVSSNDFSSLEALCKKIIKEKQAFERLEVKKETLLAMFKYNKFKCRILNEKVNTPTTTVYRCGPLIDLCRGPHVRHTGKIKALKIHKNSSTYWEGKADMETLQRIYGISFPDPKMLKEWEKFQEEAKNRDHRKIGRDQELYFFHELSPGSCFFLPKGAYIYNALIEFIRSEYRKRGFQEVVTPNIFNSRLWMTSGHWQHYSENMFSFEVEKELFALKPMNCPGHCLMFDHRPRSWRELPLRLADFGVLHRNELSGALTGLTRVRRFQQDDAHIFCAMEQIEDEIKGCLDFLRTVYSVFGFSFKLNLSTRPEKFLGDIEVWDQAEKQLENSLNEFGEKWELNSGDGAFYGPKIDIQIKDAIGRYHQCATIQLDFQLPIRFNLTYVSHDGDDKKRPVIVHRAILGSVERMIAILTENYGGKWPFWLSPRQVMVVPVGPTCDEYAQKVRQQFHDAKFMADIDLDPGCTLNKKIRNAQLAQYNFILVVGEKEKISGTVNIRTRDNKVHGERTISETIERLQQLKEFRSKQAEEEF | – | significantly increased the number of tube branches; also recorded: promotes angiogenesis | did not exert a significant effect on cell proliferation; also recorded: does not significantly affect cell proliferation | sensitive to BC194 | stimulated vessel formation; also recorded: induces in vivo angiogenesis | significantly increased migration of endothelial cells; also recorded: selectively induces migration of endothelial cells | exhibits aminoacyl synthetase activity | 0.1391 Ap4A/active site/min | 0.1639 Ap4G/active site/min |
| 0.2137 GDP/active site/min | R442A TARS: aminoacylation-deficient mutant of hTARS, active site Arg442 substituted with alanine (protein, UniProt P26639 1-723, looked up, variant R442A) Threonine--tRNA ligase 1, …: MFEEKASSPSGKMGGEEKPIGAGEEKQKEGGKKKNKEGSGDGGRAELNPWPEYIYTRLEMYNILKAEHDSILAEKAEKDSKPIKVTLPDGKQVDAESWKTTPYQIACGISQGLADNTVIAKVNNVVWDLDRPLEEDCTLELLKFEDEEAQAVYWHSSAHIMGEAMERVYGGCLCYGPPIENGFYYDMYLEEGGVSSNDFSSLEALCKKIIKEKQAFERLEVKKETLLAMFKYNKFKCRILNEKVNTPTTTVYRCGPLIDLCRGPHVRHTGKIKALKIHKNSSTYWEGKADMETLQRIYGISFPDPKMLKEWEKFQEEAKNRDHRKIGRDQELYFFHELSPGSCFFLPKGAYIYNALIEFIRSEYRKRGFQEVVTPNIFNSRLWMTSGHWQHYSENMFSFEVEKELFALKPMNCPGHCLMFDHRPRSWRELPLRLADFGVLHANELSGALTGLTRVRRFQQDDAHIFCAMEQIEDEIKGCLDFLRTVYSVFGFSFKLNLSTRPEKFLGDIEVWDQAEKQLENSLNEFGEKWELNSGDGAFYGPKIDIQIKDAIGRYHQCATIQLDFQLPIRFNLTYVSHDGDDKKRPVIVHRAILGSVERMIAILTENYGGKWPFWLSPRQVMVVPVGPTCDEYAQKVRQQFHDAKFMADIDLDPGCTLNKKIRNAQLAQYNFILVVGEKEKISGTVNIRTRDNKVHGERTISETIERLQQLKEFRSKQAEEEF | – | – | – | – | virtually indistinguishable from wild type | – | essentially no aminoacylation activity; also recorded: virtually negligible aminoacylation function | no appreciable activity; also recorded: blocked | not catalyzed; also recorded: blocked |
